# Measured values taken from patent US20250281611A1 (BIOSCEPTRE AUST, published 2025).
# Legend:
# [1] = molecular target: T1, nfP2X7 CAR 1; assay: flow cytometry, nfP2X7 CAR T cells (EGFR+), anti-His-FITC detection
# T1 construct: Expressed on T cells with truncated EGFR as marker gene; also called anti-nfP2X7 receptor CAR 1; nfP2X7 targeted CAR on EGFR+ T cells
# Method: (§1) nfP2X₇ CAR T cells were incubated with different BRiDGE variants at saturating concentrations. […] The MFI intensity correlates with the number of secondary bound antibodies bound to the BRiDGEs that are only detected if they are bound to the CAR T cells. EGFR was used as a marker gene to detect the CAR expression. Thus, the EGFR+ T cell population was defined as the CAR expressing cells and the EGFR− T cell population was defined as the CAR negative subset. MFI: median fluorescence intensity. EGFR: epidermal growth factor receptor. BLItz: Bio-Layer interferometry (BLI) technology using HIS-tag identification tips. HIS-tag MFI Ratio: relative index that is calculated by the testing condition MFI divided by the control MFI, which corresponds to the MFI measured on EGFR+ T cells (defined as CAR positive cells) divided by the MFI measured on the EGFR− T cells (defined as CAR negative cells). […] The higher the MFIR, the stronger the binding.
# [2] = molecular target: T2, CD33 (UniProt P20138 18-364, limits assumed); assay: flow cytometry, MOLM-13 cells, anti-His-FITC detection
# T2 construct: whole, on cells; also called Siglec-3; CD33 on MOLM-13 cells
# Method: (§2) MOLM-13 cells were incubated with different CD33 BRIDGE variants at saturating concentrations. […] The MFI intensity correlates with the number of secondary antibodies bound to the CD33 BRIDGE variants that are only detected if they are bound to the MOLM-13 cells. MFI: median fluorescence intensity. BLItz: Bio-Layer interferometry (BLI) technology using HIS-tag identification tips. […] The higher the MFIR, the stronger the binding.
# [3] = molecular target: T1, nfP2X7 CAR 1; assay: flow cytometry, CAR T cells, anti-His-FITC, EGFR+ MFI over background 0.4
# Method: as §1
# [4] = molecular target: T1, nfP2X7 CAR 1; assay: flow cytometry, CAR T cells, anti-His-FITC, EGFR+ over EGFR- cells
# Method: as §1
# [5] = molecular target: T2, CD33; assay: flow cytometry, MOLM-13 cells, anti-His-FITC detection, ratio to no bridge
# Method: as §2
# T2 sequence (P20138 18-364 limits assumed): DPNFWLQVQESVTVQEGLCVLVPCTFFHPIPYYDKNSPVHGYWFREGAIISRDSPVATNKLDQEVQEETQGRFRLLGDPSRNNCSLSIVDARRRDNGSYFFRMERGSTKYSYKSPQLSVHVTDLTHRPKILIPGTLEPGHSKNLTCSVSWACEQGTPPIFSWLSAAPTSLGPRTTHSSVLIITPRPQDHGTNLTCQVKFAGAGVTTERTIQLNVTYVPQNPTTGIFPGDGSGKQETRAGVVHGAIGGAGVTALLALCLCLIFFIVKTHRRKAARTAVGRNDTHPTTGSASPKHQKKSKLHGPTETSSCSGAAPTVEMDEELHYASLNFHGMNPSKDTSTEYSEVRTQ
Binder,MFI HisTag FITC in EGFR+ Population [1],MFI HisTag FITC [2],HisTag MFI Ratio (background 0.4) [3],HisTag MFI Ratio of EGFR+/EGFR- [4],MFIR HisTag FITC [5]
"CD33 BRIDGE variant B1 (Fab, V domains shown, Lintuzumab-based Fab bridging molecule) VH: QVQLVQSGAEVKKPGSSVKVSCKASGYTFTDYNMHWVRQAPGQGLEWIGYIYPYNGGTGYNQKFKSKATITADESTNTAYMELSSLRSEDTAVYYCARGRPAMDYWGQGTLVTVSS VL: DIQMTQSPSSLSASVGDRVTITCRASESVDNYGISFMNWFQQKPGKAPKLLIYAASNQGSGVPSRFSGSGSGTDFTLTISSLQPDDFATYYCQQSKEVPWTFGQGTKVEIKR",1.08,6.11,2.7,2.5,9.12
"CD33 BRIDGE variant B3 (Fab, V domains shown, Lintuzumab-based Fab bridging molecule) VH: QVQLVQSGAEVKKPGSSVKVSCKASGYTFTDYNMHWVRQAPGQGLEWIGYIYPYNGGTGYNQKFKSKATITADESTNTAYMELSSLRSEDTAVYYCARGRPAMDYWGQGTLVTVSS VL: DIQMTQSPSSLSASVGDRVTITCRASESVDNYGISFMNWFQQKPGKAPKLLIYAASNQGSGVPSRFSGSGSGTDFTLTISSLQPDDFATYYCQQSKEVPWTFGQGTKVEIKR",1.04,6.76,2.6,2.4,10.1
"CD33 BRIDGE variant B8 (Fab, V domains shown, Lintuzumab-based Fab bridging molecule) VH: QVQLVQSGAEVKKPGSSVKVSCKASGYTFTDYNMHWVRQAPGQGLEWIGYIYPYNGGTGYNQKFKSKATITADESTNTAYMELSSLRSEDTAVYYCARGRPAMDYWGQGTLVTVSS VL: DIQMTQSPSSLSASVGDRVTITCRASESVDNYGISFMNWFQQKPGKAPKLLIYAASNQGSGVPSRFSGSGSGTDFTLTISSLQPDDFATYYCQQSKEVPWTFGQGTKVEIKR",1.34,6.53,3.4,2.9,9.75
"CD33 BRIDGE variant B2 (Fab, V domains shown, Lintuzumab-based Fab bridging molecule) VH: QVQLVQSGAEVKKPGSSVKVSCKASGYTFTDYNMHWVRQAPGQGLEWIGYIYPYNGGTGYNQKFKSKATITADESTNTAYMELSSLRSEDTAVYYCARGRPAMDYWGQGTLVTVSS VL: DIQMTQSPSSLSASVGDRVTITCRASESVDNYGISFMNWFQQKPGKAPKLLIYAASNQGSGVPSRFSGSGSGTDFTLTISSLQPDDFATYYCQQSKEVPWTFGQGTKVEIKR",1.11,5.59,2.8,2.5,8.34
"CD33 BRIDGE variant B7 (Fab, V domains shown, Lintuzumab-based Fab bridging molecule) VH: QVQLVQSGAEVKKPGSSVKVSCKASGYTFTDYNMHWVRQAPGQGLEWIGYIYPYNGGTGYNQKFKSKATITADESTNTAYMELSSLRSEDTAVYYCARGRPAMDYWGQGTLVTVSS VL: DIQMTQSPSSLSASVGDRVTITCRASESVDNYGISFMNWFQQKPGKAPKLLIYAASNQGSGVPSRFSGSGSGTDFTLTISSLQPDDFATYYCQQSKEVPWTFGQGTKVEIKR",1.45,5.52,3.6,3,8.24
"CD33 BRIDGE variant B4 (Fab, Lintuzumab-based Fab bridging molecule) light: GHNYTTRNILPGLNITSTFHKTSGSGKEPKSSDKTHTDIQMTQSPSSLSASVGDRVTITCRASESVDNYGISFMNWFQQKPGKAPKLLIYAASNQGSGVPSRFSGSGSGTDFTLTISSLQPDDFATYYCQQSKEVPWTFGQGTKVEIKRTVAAPSVFIFPPSDEQLKSGTASVVCLLNNFYPREAKVQWKVDNALQSGNSQESVTEQDSKDSTYSLSSTLTLSKADYEKHKVYACEVTHQGLSSPVTKSFNRGECHHHHHH heavy: QVQLVQSGAEVKKPGSSVKVSCKASGYTFTDYNMHWVRQAPGQGLEWIGYIYPYNGGTGYNQKFKSKATITADESTNTAYMELSSLRSEDTAVYYCARGRPAMDYWGQGTLVTVSSASTKGPSVFPLAPSSKSTSGGTAALGCLVKDYFPEPVTVSWNSGALTSGVHTFPAVLQSSGLYSLSSVVTVPSSSLGTQTYICNVNHKPSNTKVDKKVEPKSCHHHHHH",1.68,5.53,4.2,3.1,8.25
"CD33 BRIDGE variant B6 (Fab, Lintuzumab-based Fab bridging molecule) light: GHNYTTRNILPGLNITSTFHKTSGSGKGGGSEPKSSDKTHTDIQMTQSPSSLSASVGDRVTITCRASESVDNYGISFMNWFQQKPGKAPKLLIYAASNQGSGVPSRFSGSGSGTDFTLTISSLQPDDFATYYCQQSKEVPWTFGQGTKVEIKRTVAAPSVFIFPPSDEQLKSGTASVVCLLNNFYPREAKVQWKVDNALQSGNSQESVTEQDSKDSTYSLSSTLTLSKADYEKHKVYACEVTHQGLSSPVTKSFNRGECHHHHHH heavy: QVQLVQSGAEVKKPGSSVKVSCKASGYTFTDYNMHWVRQAPGQGLEWIGYIYPYNGGTGYNQKFKSKATITADESTNTAYMELSSLRSEDTAVYYCARGRPAMDYWGQGTLVTVSSASTKGPSVFPLAPSSKSTSGGTAALGCLVKDYFPEPVTVSWNSGALTSGVHTFPAVLQSSGLYSLSSVVTVPSSSLGTQTYICNVNHKPSNTKVDKKVEPKSCHHHHHH",1.96,6.25,4.9,3.4,9.33
"CD33 BRIDGE variant B5 (Fab, Lintuzumab-based Fab bridging molecule) light: GHNYTTRNILPGLNITSTFHKTSGSGKGSEPKSSDKTHTDIQMTQSPSSLSASVGDRVTITCRASESVDNYGISFMNWFQQKPGKAPKLLIYAASNQGSGVPSRFSGSGSGTDFTLTISSLQPDDFATYYCQQSKEVPWTFGQGTKVEIKRTVAAPSVFIFPPSDEQLKSGTASVVCLLNNFYPREAKVQWKVDNALQSGNSQESVTEQDSKDSTYSLSSTLTLSKADYEKHKVYACEVTHQGLSSPVTKSFNRGECHHHHHH heavy: QVQLVQSGAEVKKPGSSVKVSCKASGYTFTDYNMHWVRQAPGQGLEWIGYIYPYNGGTGYNQKFKSKATITADESTNTAYMELSSLRSEDTAVYYCARGRPAMDYWGQGTLVTVSSASTKGPSVFPLAPSSKSTSGGTAALGCLVKDYFPEPVTVSWNSGALTSGVHTFPAVLQSSGLYSLSSVVTVPSSSLGTQTYICNVNHKPSNTKVDKKVEPKSCHHHHHH",1.4,5.86,3.5,2.8,8.75
"CD33 BRIDGE variant B11 (Fab, Lintuzumab-based Fab bridging molecule) light: GHNYTTRNILPGLNITSTFHKTSGSGKGSEPKSSDKTHTGSDIQMTQSPSSLSASVGDRVTITCRASESVDNYGISFMNWFQQKPGKAPKLLIYAASNQGSGVPSRFSGSGSGTDFTLTISSLQPDDFATYYCQQSKEVPWTFGQGTKVEIKRTVAAPSVFIFPPSDEQLKSGTASVVCLLNNFYPREAKVQWKVDNALQSGNSQESVTEQDSKDSTYSLSSTLTLSKADYEKHKVYACEVTHQGLSSPVTKSFNRGECHHHHHH heavy: QVQLVQSGAEVKKPGSSVKVSCKASGYTFTDYNMHWVRQAPGQGLEWIGYIYPYNGGTGYNQKFKSKATITADESTNTAYMELSSLRSEDTAVYYCARGRPAMDYWGQGTLVTVSSASTKGPSVFPLAPSSKSTSGGTAALGCLVKDYFPEPVTVSWNSGALTSGVHTFPAVLQSSGLYSLSSVVTVPSSSLGTQTYICNVNHKPSNTKVDKKVEPKSCHHHHHH",1.2,7.39,3,2.7,11
"CD33 BRIDGE variant B10 (Fab, Lintuzumab-based Fab bridging molecule) light: GHNYTTRNILPGLNITSTFHKTSGSGKEPKSSDKTHTGSDIQMTQSPSSLSASVGDRVTITCRASESVDNYGISFMNWFQQKPGKAPKLLIYAASNQGSGVPSRFSGSGSGTDFTLTISSLQPDDFATYYCQQSKEVPWTFGQGTKVEIKRTVAAPSVFIFPPSDEQLKSGTASVVCLLNNFYPREAKVQWKVDNALQSGNSQESVTEQDSKDSTYSLSSTLTLSKADYEKHKVYACEVTHQGLSSPVTKSFNRGECHHHHHH heavy: QVQLVQSGAEVKKPGSSVKVSCKASGYTFTDYNMHWVRQAPGQGLEWIGYIYPYNGGTGYNQKFKSKATITADESTNTAYMELSSLRSEDTAVYYCARGRPAMDYWGQGTLVTVSSASTKGPSVFPLAPSSKSTSGGTAALGCLVKDYFPEPVTVSWNSGALTSGVHTFPAVLQSSGLYSLSSVVTVPSSSLGTQTYICNVNHKPSNTKVDKKVEPKSCHHHHHH",1.99,6.86,5,3.5,10.2
